From patent publication US20160272683A1 (Novo Nordisk, published 2016)
Ends that are not written are not given here. * marks the point of attachment. C18 diacid = O=C(O)CCCCCCCCCCCCCCCCC(=O)*

T1: human amylin 3(a) receptor (human calcitonin receptor co-expressed with RAMP-3) (human, UniProt P30988 25-474; O60896 24-148, limits assumed)
T1 sequence (looked up) 1: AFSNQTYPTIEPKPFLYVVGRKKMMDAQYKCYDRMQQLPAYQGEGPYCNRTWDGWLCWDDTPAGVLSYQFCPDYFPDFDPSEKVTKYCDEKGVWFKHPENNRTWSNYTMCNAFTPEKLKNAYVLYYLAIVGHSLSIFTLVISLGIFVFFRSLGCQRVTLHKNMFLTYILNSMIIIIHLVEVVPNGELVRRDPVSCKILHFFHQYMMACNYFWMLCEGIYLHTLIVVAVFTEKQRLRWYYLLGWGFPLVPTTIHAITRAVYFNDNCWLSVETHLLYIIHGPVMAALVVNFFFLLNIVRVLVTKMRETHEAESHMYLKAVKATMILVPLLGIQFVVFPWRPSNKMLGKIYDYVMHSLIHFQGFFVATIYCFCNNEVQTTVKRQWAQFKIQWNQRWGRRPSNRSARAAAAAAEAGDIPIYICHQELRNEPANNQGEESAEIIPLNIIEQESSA
T1 sequence (looked up) 2: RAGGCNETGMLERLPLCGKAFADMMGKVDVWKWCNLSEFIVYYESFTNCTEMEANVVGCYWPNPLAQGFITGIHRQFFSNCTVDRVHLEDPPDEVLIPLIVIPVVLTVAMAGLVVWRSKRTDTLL

T2: human calcitonin receptor (human, UniProt P30988 25-474)
T2 sequence (looked up): T1 sequence (looked up) 1

B1: [N-terminal(C18 diacid), 9L]mimylin (peptide)
peptide: {C18 diacid}-EASELSTALLGRLSAELHELATLPRTETGPESP-NH2
SMILES: CC(C)C[C@H](NC(=O)[C@H](C)NC(=O)[C@@H](NC(=O)[C@H](CO)NC(=O)[C@H](CC(C)C)NC(=O)[C@H](CCC(=O)O)NC(=O)[C@H](CO)NC(=O)[C@H](C)NC(=O)[C@H](CCC(=O)O)NC(=O)CCCCCCCCCCCCCCCCC(=O)O)[C@@H](C)O)C(=O)N[C@@H](CC(C)C)C(=O)NCC(=O)N[C@@H](CCCNC(=N)N)C(=O)N[C@@H](CC(C)C)C(=O)N[C@@H](CO)C(=O)N[C@@H](C)C(=O)N[C@@H](CCC(=O)O)C(=O)N[C@@H](CC(C)C)C(=O)N[C@@H](Cc1c[nH]cn1)C(=O)N[C@@H](CCC(=O)O)C(=O)N[C@@H](CC(C)C)C(=O)N[C@@H](C)C(=O)N[C@H](C(=O)N[C@@H](CC(C)C)C(=O)N1CCC[C@H]1C(=O)N[C@@H](CCCNC(=N)N)C(=O)N[C@H](C(=O)N[C@@H](CCC(=O)O)C(=O)N[C@H](C(=O)NCC(=O)N1CCC[C@H]1C(=O)N[C@@H](CCC(=O)O)C(=O)N[C@@H](CO)C(=O)N1CCC[C@H]1C(N)=O)[C@@H](C)O)[C@@H](C)O)[C@@H](C)O
B2: [N-terminal(C18 diacid), 18A]mimylin (peptide)
peptide: {C18 diacid}-EASELSTAALGRLSAELAELATLPRTETGPESP-NH2
SMILES: CC(C)C[C@H](NC(=O)[C@H](C)NC(=O)[C@H](C)NC(=O)[C@@H](NC(=O)[C@H](CO)NC(=O)[C@H](CC(C)C)NC(=O)[C@H](CCC(=O)O)NC(=O)[C@H](CO)NC(=O)[C@H](C)NC(=O)[C@H](CCC(=O)O)NC(=O)CCCCCCCCCCCCCCCCC(=O)O)[C@@H](C)O)C(=O)NCC(=O)N[C@@H](CCCNC(=N)N)C(=O)N[C@@H](CC(C)C)C(=O)N[C@@H](CO)C(=O)N[C@@H](C)C(=O)N[C@@H](CCC(=O)O)C(=O)N[C@@H](CC(C)C)C(=O)N[C@@H](C)C(=O)N[C@@H](CCC(=O)O)C(=O)N[C@@H](CC(C)C)C(=O)N[C@@H](C)C(=O)N[C@H](C(=O)N[C@@H](CC(C)C)C(=O)N1CCC[C@H]1C(=O)N[C@@H](CCCNC(=N)N)C(=O)N[C@H](C(=O)N[C@@H](CCC(=O)O)C(=O)N[C@H](C(=O)NCC(=O)N1CCC[C@H]1C(=O)N[C@@H](CCC(=O)O)C(=O)N[C@@H](CO)C(=O)N1CCC[C@H]1C(N)=O)[C@@H](C)O)[C@@H](C)O)[C@@H](C)O

Legend:
[1] = biological target: T1, human amylin 3(a) receptor (human …); test: cell-based or functional assay
[2] = biological target: T2, human calcitonin receptor; test: cell-based or functional assay

hAmylin-R funct. EC50 (pM) [1]	hCTR funct. EC50 (pM) [2]	Binder
28 pM	13 pM	B1
4 pM	3 pM	B2
5 pM	2 pM	EASELSTAALGRLSAELHELATLPRTETGSGSP-NH2 [[30S, 31G]mimylin]
7 pM	2 pM	ASEVSTAVLGRLSAELHELATLPRTETGSGSP-NH2 [[des1, 5V, 9V, 30S, 31G]mimylin]
11 pM	6 pM	LSGLSTAVLGRLSQELHELQTYPRTETGSQTY-NH2 [[des1, 2L, 4G, 9V, 15Q, 21Q, 23Y, 30S, 31Q, 32T, 33Y]mimylin]
5 pM	4 pM	ASGLSTATLGRLSQELHELQTYPRTETGSGTY (ends and bridges not checked) [[des1, 4G, 9T, 15Q, 21Q, 23Y, 30S, 31G, 32T, 33Y]mimylin]
8 pM	4 pM	ASGLSTAVLGRLSQELHELQTYPRTETGSGTY (ends and bridges not checked) [[des1, 4G, 9V, 15Q, 21Q, 23Y, 30S, 31G, 32T, 33Y]mimylin]
23600 pM	840 pM	EASELSTAALGRLSAELHELATLPRTETGPESP-OH [[C-terminal(-)]mimylin]
629 pM	103 pM	ASELTTAVLGRLEAELHELTTLPRTETGTGTP-NH2 [[des1, 6T, 9V, 14E, 21T, 30T, 31G, 32T]mimylin]
